“Also recorded” adds a separate entry of the source. Marks after values point to notes of the source that are not given here.
Assays:
latent papain P13 = target: T1, latent papain P13 (Carica papaya, UniProt P00784); test: Latent papain reactivation assay with thiol activators at 10 μM, rates normalized to 10 μM cysteine (FIG. 18); format: biochemical; details: activator 10 μM, latent papain 1 nM, Z-Phe-Arg-AMC 2 μM, pH 7
T1 construct: purchased Sigma Aldrich (Munich, Germany); host or cells: Papaya latex (natural source)
T1 sequence (P00784 134-345): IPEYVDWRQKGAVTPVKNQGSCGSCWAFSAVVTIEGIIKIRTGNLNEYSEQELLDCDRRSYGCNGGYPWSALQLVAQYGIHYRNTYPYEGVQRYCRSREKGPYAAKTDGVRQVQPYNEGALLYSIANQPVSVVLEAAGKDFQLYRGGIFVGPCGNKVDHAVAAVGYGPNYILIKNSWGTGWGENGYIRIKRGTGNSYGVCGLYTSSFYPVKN
Procedure: All following described fluorometric assays (Examples 1-3) are based on the reaction of reversibly inactivated papain (latent papain) with an activator containing either sulfur or selenium (with the exception of TCEP). Different latent papain forms, buffer compositions and activators in various concentrations were compared. Papain was hereby transferred in buffer (standard well buffer consisted of 0.1 M phosphate pH 7, 4 mM EDTA, 0.01% Brij35 and if activators contained diselenides, 1 μM TCEP) mixed with activator and substrate inside 96 well plates (without prior washing of the plates). After reactivation, active papain hydrolyses the substrate Z-Phe-Arg-AMC (2 μM) and the resulting fluorescence was tracked every minute for 2 h. The slopes of the corresponding curves were calculated for the linear portion within the first 30 minutes and the resulting reaction rates were directly compared. Resulting reaction rates directly reflect reactivation efficiencies of each activator under each reaction condition. […] After addition of activator a fraction of latent papain is immediately reactivated in rather non-stoichiometric proportions. Complete reactivation can generally only be achieved with great excess of activator. The partial reactivation with smaller activator amounts appears almost instantaneously because the resulting reaction curve show linear progression from the start except for very low activator concentrations. After reactivation, all different latent papain forms result in the same active enzyme. If different latent papain forms show different reaction rates in identical activation assays, the efficiency of reactivation with the applied activator can be deduced. The same applies for reactivation of one latent papain form with different activators or reaction conditions.
Several thiol compounds and cysteine containing peptide activators (see Example 4.1) were compared for their potential to reactivate latent papain. To this end, the thiol compounds and cysteine containing peptide activators were utilized in reactivation assays (see Example 5, 5.2.2.2, fluorometric method 2) of papain P13 (see Example 1, 1.2) with an activator concentration of 10 μM. For thiols not completely soluble in phosphate buffer pH 7 at high concentrations, the 1 mM stock solution was prepared in DMSO, resulting in 1% DMSO in the reaction mixture. In order to normalize the observed reaction rates between assays, a 10 μM cysteine sample was additionally measured in every assay and reaction rates of the examined thiols were divided through the reaction rates produced by the 10 μM cysteine standard. Additionally, a measurement with 1 mM cysteine was performed in order to achieve maximal papain activation and therefore the maximal reaction rate within the confines of the assay. The resulting normalized rates are compared in FIG. 18.
(§1) Different assays of reactivating latent papain in solution were conducted in the course of this work. Various buffer compositions, supplements, 96 well plates, substrates, activators, concentrations as well as different latent papain forms were compared. In order to get an overview of all experiments, a standard method is described in the following and variations of this method are subsequently defined. First, the well buffer was prepared (0.1 M phosphate buffer pH 7, 4 mM EDTA, 0.01% Brij35). A 1 mM TCEP solution was prepared with 3 mM NaOH in 0.1 M Tris-HCl buffer pH 8. Papain substrate (Z-Phe-Arg-AMC or Suc-Leu-Leu-Val-Tyr-AMC) was prepared as a 200 μM solution in water and transferred equally to a PCR strip. Three serial dilutions of the activating agent with well buffer were used in the different experiments and the corresponding pipetting schemes are shown in Table 9. Papain was diluted to 0.1 μM with well buffer and transferred equally to a PCR strip. After preparation of the abovementioned solutions, TCEP (1 mM solution) was added to well buffer to yield a final TCEP concentration of 1.1 μM. […]

[1] = cited from earlier work; for pKa (H2O): published values, source mark b or d legible
[2] = target: T2, dU-triazole-PEG3-ULR dimer (21) (not fully specified)
T2 chain: ULR

[3] = target: T3, latent papain forms P20-P28 (Carica papaya, UniProt P00784); test: Comparison of reactivation efficiencies of latent papain forms with activator dU-triazole-PEG3-ULR (21) (FIG. 15, 16); format: biochemical; details: for reaction rate of substrate hydrolysis after reactivation (not normalized), in words / normalized rate/rate blank after reactivation, in words: activator dU-triazole-PEG3-ULR (21) 1-15 nM; for reaction rate of substrate hydrolysis after reactivation (not normalized), in words: papain 1 nM (FIG. 15); for normalized rate/rate blank after reactivation, in words: papain 1 nM (FIG. 16)
T3 construct: purchased Sigma Aldrich (Munich, Germany); host or cells: Papaya latex (natural source)
T3 sequence (P00784 134-345): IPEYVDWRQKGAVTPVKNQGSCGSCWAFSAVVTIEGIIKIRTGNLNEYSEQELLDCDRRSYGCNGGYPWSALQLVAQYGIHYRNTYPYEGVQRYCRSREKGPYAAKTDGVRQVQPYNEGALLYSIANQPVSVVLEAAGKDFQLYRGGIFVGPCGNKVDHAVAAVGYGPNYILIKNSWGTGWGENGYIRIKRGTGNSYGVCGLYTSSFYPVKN
Procedure: In order to reversibly deactivate commercially purchased papain, reactions with different thiosulfonate derivatives were carried out and different latent papain versions were produced. Papain was first incubated with cysteine to yield complete activated papain which could then be incubated and deactivated with the specific thiosulfonate solutions. A mixture of papain disulfides is otherwise to be expected. An additional step was introduced in this work with the goal of further reduction of residual enzymatic activity. After incubation with either thiosulfonate derivative, papain was thus incubated with equimolar amounts of the more efficient irreversible inhibitor E64 (see Example 5, 5.2.1.2) in order to deactivate possible unmodified papain traces. The excess of small molecules was then separated by Sephadex G25 spin columns. Different thiosulfonates were synthesized (data not shown) and used to produce different latent papain forms, to the authors best knowledge yet unknown to literature (P23, P24 and P26), with their reactivation efficiency directly compared. The four thiosulfonates S-benzyl (1)-, S-propyl (2)-, S-(2-acetic acid) (3)- and S-(2-aminoethyl) (5)-ethanethiosulfonate are shown in FIGS. 6 and 13.
All latent papain forms were synthesized as described (see Example 5, 5.2.1.2) and concentrations of the stock solutions were determined (see Example 5, 5.2.1.3) and are shown in FIG. 14. In favor of allowing for precise comparison of all different papain forms, papain P20-28 were produced and processed simultaneously, whereas production of P28 differed in lack of pre-activation with cysteine and incubation with E64 in order to examine if those two steps are indeed affecting the latent papain quality (P20 vs. P28).
The successfully produced latent papain forms were then utilized in a reactivation assay in accordance with the method of the invention (see Example 5, 5.2.2.2), fluorometric method 1) with the selenocysteine containing activator dU-triazole-PEG3-ULR (21) in concentrations from 1 nM-15 nM. The resulting reaction rates of every papain and every activator concentration are directly compared in FIG. 15.
On second look, it becomes clear that the calculated rates have to be considered in relation to the residual papain activity. Without activator present, the rates of papain differ greatly between the latent derivatives. This must be due solely to their chemical properties and not to a result of remaining active papain after incubation with thiosulfonate, because subsequent incubation with equimolar amounts of E64 inhibitor will inevitably deactivate remaining active papain irreversibly (see Example 5, 5.2.1.2). In order to normalize the presented reaction rates, they were divided through the reaction rate of the corresponding residual activity (blank value) and results are shown in FIG. 16.
as §1

## O=[N+]([O-])c1ccc(S)nc1 [2-mercapto-5-nitropyridine, 2-Mercapto-5-nitropyridine]
Latent papain P13
  reaction rate compared to L-cysteine: less than 15%
[1]
  pKa of thiol, as discussed in text: 7.1

## Sc1ccc(Br)cc1 [4-Bromothiophenol]
[1]
  pKa (H2O): 6.0^b

## COc1ccc(S)cc1 [4-Methoxythiophenol]
[1]
  pKa (H2O): 6.8^b

B1: latent papain P24 (-S-S-CH2-COOH) (protein)
chain: IPEYVDWRQKGAVTPVKNQGSCGSCWAFSAVVTIEGIIKIRTGNLNEYSEQELLDCDRRSYGCNGGYPWSALQLVAQYGIHYRNTYPYEGVQRYCRSREKGPYAAKTDGVRQVQPYNEGALLYSIANQPVSVVLEAAGKDFQLYRGGIFVGPCGNKVDHAVAAVGYGPNYILIKNSWGTGWGENGYIRIKRGTGNSYGVCGLYTSSFYPVKN
[2]
  normalized ratio rate/rate blank of substrate hydrolysis after reactivation of latent papain (1 nM) with activator 1-15 nM: featured low normalized rates as seen for P24
  reaction rate of Z-Phe-Arg-AMC hydrolysis after reactivation of latent papain (1 nM) with activator 1-15 nM: Papain P24 with its negatively charged residue showed reaction rates close to Papain P20 with the methyl residue

B2: latent papain P26 (S-S-CH2-C6H5) (protein)
chain: IPEYVDWRQKGAVTPVKNQGSCGSCWAFSAVVTIEGIIKIRTGNLNEYSEQELLDCDRRSYGCNGGYPWSALQLVAQYGIHYRNTYPYEGVQRYCRSREKGPYAAKTDGVRQVQPYNEGALLYSIANQPVSVVLEAAGKDFQLYRGGIFVGPCGNKVDHAVAAVGYGPNYILIKNSWGTGWGENGYIRIKRGTGNSYGVCGLYTSSFYPVKN
[2]
  normalized ratio rate/rate blank of substrate hydrolysis after reactivation of latent papain (1 nM) with activator 1-15 nM: papain P26 showed the third highest normalized rate values
  reaction rate of Z-Phe-Arg-AMC hydrolysis after reactivation of latent papain (1 nM) with activator 1-15 nM: The papain variant P26 with its benzyl residue showed greatly reduced rates when compared to all other variants

B3: latent papain P25 (-S-S-(CH2)2-CH3) (protein)
chain: IPEYVDWRQKGAVTPVKNQGSCGSCWAFSAVVTIEGIIKIRTGNLNEYSEQELLDCDRRSYGCNGGYPWSALQLVAQYGIHYRNTYPYEGVQRYCRSREKGPYAAKTDGVRQVQPYNEGALLYSIANQPVSVVLEAAGKDFQLYRGGIFVGPCGNKVDHAVAAVGYGPNYILIKNSWGTGWGENGYIRIKRGTGNSYGVCGLYTSSFYPVKN
[2]
  normalized ratio rate/rate blank of substrate hydrolysis after reactivation of latent papain (1 nM) with activator 1-15 nM: The second aliphatic residue of P25 showed surprisingly low reactivation potential towards the activator

B4: P23: latent papain form with positively charged aminoethyl disulfide residue (protein)
chain: IPEYVDWRQKGAVTPVKNQGSCGSCWAFSAVVTIEGIIKIRTGNLNEYSEQELLDCDRRSYGCNGGYPWSALQLVAQYGIHYRNTYPYEGVQRYCRSREKGPYAAKTDGVRQVQPYNEGALLYSIANQPVSVVLEAAGKDFQLYRGGIFVGPCGNKVDHAVAAVGYGPNYILIKNSWGTGWGENGYIRIKRGTGNSYGVCGLYTSSFYPVKN
[3]
  reaction rate of substrate hydrolysis after reactivation (not normalized), in words: by far the most efficiently reactivated latent papain form

B5: P26: latent papain form with benzyl disulfide residue (protein)
chain: IPEYVDWRQKGAVTPVKNQGSCGSCWAFSAVVTIEGIIKIRTGNLNEYSEQELLDCDRRSYGCNGGYPWSALQLVAQYGIHYRNTYPYEGVQRYCRSREKGPYAAKTDGVRQVQPYNEGALLYSIANQPVSVVLEAAGKDFQLYRGGIFVGPCGNKVDHAVAAVGYGPNYILIKNSWGTGWGENGYIRIKRGTGNSYGVCGLYTSSFYPVKN
[3]
  reaction rate of substrate hydrolysis after reactivation (not normalized), in words: greatly reduced rates
  normalized rate/rate blank after reactivation, in words: third highest normalized rate values

B6: P20: latent papain, methyl mixed disulfide, with cysteine pre-activation and E64 (protein)
chain: IPEYVDWRQKGAVTPVKNQGSCGSCWAFSAVVTIEGIIKIRTGNLNEYSEQELLDCDRRSYGCNGGYPWSALQLVAQYGIHYRNTYPYEGVQRYCRSREKGPYAAKTDGVRQVQPYNEGALLYSIANQPVSVVLEAAGKDFQLYRGGIFVGPCGNKVDHAVAAVGYGPNYILIKNSWGTGWGENGYIRIKRGTGNSYGVCGLYTSSFYPVKN
[3]
  normalized rate/rate blank after reactivation, in words: highest of all papain forms; also recorded: twice as high as P28
[3]; without activator (blank), papain 1 nM
  residual activity rate compared to P23: 25%

B7: P24: latent papain form with negatively charged acetic acid disulfide residue (protein)
chain: IPEYVDWRQKGAVTPVKNQGSCGSCWAFSAVVTIEGIIKIRTGNLNEYSEQELLDCDRRSYGCNGGYPWSALQLVAQYGIHYRNTYPYEGVQRYCRSREKGPYAAKTDGVRQVQPYNEGALLYSIANQPVSVVLEAAGKDFQLYRGGIFVGPCGNKVDHAVAAVGYGPNYILIKNSWGTGWGENGYIRIKRGTGNSYGVCGLYTSSFYPVKN
[3]
  normalized rate/rate blank after reactivation, in words: low normalized rates

B8: P25: latent papain form with propyl disulfide residue (protein)
chain: IPEYVDWRQKGAVTPVKNQGSCGSCWAFSAVVTIEGIIKIRTGNLNEYSEQELLDCDRRSYGCNGGYPWSALQLVAQYGIHYRNTYPYEGVQRYCRSREKGPYAAKTDGVRQVQPYNEGALLYSIANQPVSVVLEAAGKDFQLYRGGIFVGPCGNKVDHAVAAVGYGPNYILIKNSWGTGWGENGYIRIKRGTGNSYGVCGLYTSSFYPVKN
[3]
  normalized rate/rate blank after reactivation, in words: surprisingly low reactivation potential
